{"source": "paper PMC5934816", "biological_target": "mLDH, mammalian lactate dehydrogenase (bovine) (UniProt P19858)", "test": "ELONA", "details": "ELONA: 500 ng immobilized protein; aptamer in HMCKN (2 mM HEPES, 0.2 mM MgCl2, 0.2 mM CaCl2, 0.2 mM KCl, 15 mM NaCl, pH 7.4), 2 h, room temperature; washes …"}
{"sequence": "GCCTGTTGTGAGCCTCCTAACCAGCTCGTAGAAAAAAAAAGATATTGCTTCAATTATCTCCTCGCGTTCAATTAACCCAGCATGCTTATTCTTGTCTCCC [rLDH 4]", "values": [{"measurement": "binding signal", "value": 0.053, "unit": "OD450"}]}
